Data as given in patent publication US20220073646A1 (Hoffmann-La Roche, published 2022).
Like-named read-outs stand apart in the source and are kept apart here.

Columns and labels:
[1] = target: T1, recombinant human OX40 Fc(kih) (human, UniProt P0DOX5 223-449 = IgG part, biotin on C-terminal Avi tag where used biotinylated); test: phage display, Fab ELISA
T1 construct: antigen Fc knob chain plus Fc hole chain; also called monomeric human OX40 antigen Fc(kih) fusion; biotinylated human OX40

[2] = target: recombinant cynomolgus 4-1BB Fc(kih) (cynomolgus, UniProt P0DOX5 223-449 = IgG part, biotin on C-terminal Avi tag where used biotinylated); test: SPR, captured IgG, cyno 4-1BB Fc(kih) analyte
[3] = target: mouse 4-1BB on activated mouse splenocytes (mouse, UniProt P20334 24-256); test: flow cytometry, activated mouse T cells
human 4-1BB on cells [4] = target: T2, human 4-1BB on cells (human, UniProt Q07011 24-255); test: flow cytometry, activated human CD8 T cells
T2 construct: also called HeLa-hu4-1BB-NF-kB-luc clone 26

human 4-1BB on cells [5] = target: T2, human 4-1BB on cells; test: cell-based or functional assay
[6] = target: T3, recombinant human 4-1BB Fc(kih) (human, UniProt P0DOX5 223-449 = IgG part, biotin on C-terminal Avi tag where used biotinylated); test: SPR, captured IgG, 4-1BB Fc(kih) analyte
T3 construct: also called hu4-1BB; biotinylated human 4-1BB

[7] = target: T4, cynomolgus 4-1BB on activated cynomolgus PBMC (cynomolgus, UniProt Q07011 24-255 (human entry)); test: flow cytometry, activated cynomolgus PBMC
T4 chain: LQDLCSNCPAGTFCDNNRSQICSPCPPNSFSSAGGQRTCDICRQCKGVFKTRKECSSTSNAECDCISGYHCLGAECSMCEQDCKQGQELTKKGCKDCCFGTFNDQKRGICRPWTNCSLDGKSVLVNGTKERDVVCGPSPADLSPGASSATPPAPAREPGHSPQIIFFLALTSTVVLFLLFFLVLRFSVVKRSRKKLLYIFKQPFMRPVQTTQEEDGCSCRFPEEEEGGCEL

human 4-1BB on cells [8] = target: T2, human 4-1BB on cells; test: cell-based or functional assay; remark: listed apart in the source
[9] = target: T5, human fibroblast activation protein (huFAP) on cells (human, UniProt Q12884 1-760); test: flow cytometry, NIH/3T3-huFAP clone 19
T5 construct: also called NIH/3T3-huFAP clone 39; NIH/3T3-huFAP clone 19

human 4-1BB on cells [10] = target: T2, human 4-1BB on cells; test: flow cytometry, activated human CD8+ T cells
[11] = target: T6, human FAP (His-tagged ectodomain) (human, UniProt Q12884 27-760); test: SPR, human FAP as second analyte
T6 construct: SPR texts say 'human FAP' or 'His-tagged ... dimeric FAP'; also called hu FAP; human FAP (analyte 2)

human OX40 on cells [12] = target: T7, human OX40 on cells (human, UniProt P43489 29-277); test: flow cytometry, activated human CD4 T cells
T7 sequence: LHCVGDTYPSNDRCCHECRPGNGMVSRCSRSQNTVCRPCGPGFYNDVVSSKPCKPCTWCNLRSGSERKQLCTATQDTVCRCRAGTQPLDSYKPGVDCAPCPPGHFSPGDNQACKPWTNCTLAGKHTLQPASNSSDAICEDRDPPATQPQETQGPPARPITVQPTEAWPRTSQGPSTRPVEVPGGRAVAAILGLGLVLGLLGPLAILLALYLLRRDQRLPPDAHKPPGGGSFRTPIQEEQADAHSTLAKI

[13] = target: T8, cynomolgus OX40 on activated cynomolgus PBMC (cynomolgus, UniProt P43489 29-214 (human entry)); test: flow cytometry, activated cynomolgus CD4 T cells
T8 construct: whole, on cells
T8 chain: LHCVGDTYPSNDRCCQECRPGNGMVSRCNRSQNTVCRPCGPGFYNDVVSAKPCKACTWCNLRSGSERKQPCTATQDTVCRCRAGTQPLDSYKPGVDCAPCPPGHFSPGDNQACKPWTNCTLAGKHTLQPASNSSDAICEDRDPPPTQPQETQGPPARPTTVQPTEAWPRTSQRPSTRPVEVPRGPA

[14] = target: T9, recombinant human GITR Fc(kih) (human, UniProt P0DOX5 223-449 = IgG part, biotin on C-terminal Avi tag where used biotinylated); test: SPR, GITR Fc(kih) on SA chip, FAP second analyte
T9 construct: also called hu GITR-Fc; human monomeric GITR-Fc fusion

[15] = target: T5, human fibroblast activation protein …; test: flow cytometry, 3T3-huFAP
[16] = target: T10, human GITR on HEK cells (HEK-GITR) (human, UniProt Q9Y5U5 26-241); test: flow cytometry, HEK-GITR
T10 construct: also called cell surface expressed human GITR
T10 sequence: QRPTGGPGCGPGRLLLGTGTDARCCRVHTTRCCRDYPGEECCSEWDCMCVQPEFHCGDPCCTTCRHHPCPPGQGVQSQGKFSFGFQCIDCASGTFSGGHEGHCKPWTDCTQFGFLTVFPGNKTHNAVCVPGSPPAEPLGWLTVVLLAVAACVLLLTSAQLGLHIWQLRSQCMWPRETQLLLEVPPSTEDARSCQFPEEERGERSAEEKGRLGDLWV

[17] = target: T6, human FAP (His-tagged ectodomain); test: SPR, GITR Fc(kih) on SA chip, FAP second analyte
[18] = target: recombinant cynomolgus OX40 Fc(kih) (cynomolgus, UniProt P0DOX5 223-449 = IgG part, biotin on C-terminal Avi tag where used biotinylated); test: SPR, captured IgG, cyno OX40 Fc(kih) analyte
human OX40 on cells [19] = target: T7, human OX40 on cells; test: cell-based or functional assay
[20] = target: T1, recombinant human OX40 Fc(kih); test: SPR, captured IgG, OX40 Fc(kih) analyte
[21] = target: T8, cynomolgus OX40 on activated cynomolgus …; test: flow cytometry, activated cynomolgus CD4 T cells
[22] = target: recombinant murine OX40 Fc(kih) (murine, UniProt P0DOX5 223-449 = IgG part, biotin on C-terminal Avi tag); test: SPR avidity format, murine OX40 Fc(kih) on SA chip
human OX40 on cells [23] = target: T7, human OX40 on cells; test: flow cytometry, activated human CD4 T cells; remark: listed apart in the source
human OX40 on cells [24] = target: T7, human OX40 on cells; test: cell-based or functional assay; remark: listed apart in the source
[25] = target: T11, dimeric human OX40 Fc fusion with a C-terminal Ha tag (human); test: SPR, OX40 Fc held on OX40 ligand
T11 construct: also called recombinant human Ox40 Fc; huOx40-Fc

[26] = target: T12, recombinant murine OX40 (cleaved by AcTEV digestion) (murine, UniProt P47741 20-211); test: SPR, captured IgG, AcTEV-cleaved murine OX40 analyte
T12 construct: Fc removed from murine OX40 Fc(kih)
T12 sequence: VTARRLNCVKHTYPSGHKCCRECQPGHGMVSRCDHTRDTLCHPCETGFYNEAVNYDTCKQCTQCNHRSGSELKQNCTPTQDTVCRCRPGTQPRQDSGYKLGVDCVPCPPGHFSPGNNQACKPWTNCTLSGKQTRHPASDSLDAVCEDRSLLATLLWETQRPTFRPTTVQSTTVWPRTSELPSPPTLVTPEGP

[27] = target: T13, recombinant human OX40 His (human); test: SPR, captured IgG, OX40 His analyte
T13 construct: ectodomain with avi and hexahistidine tag; also called human Ox40 avi His
T13 chain: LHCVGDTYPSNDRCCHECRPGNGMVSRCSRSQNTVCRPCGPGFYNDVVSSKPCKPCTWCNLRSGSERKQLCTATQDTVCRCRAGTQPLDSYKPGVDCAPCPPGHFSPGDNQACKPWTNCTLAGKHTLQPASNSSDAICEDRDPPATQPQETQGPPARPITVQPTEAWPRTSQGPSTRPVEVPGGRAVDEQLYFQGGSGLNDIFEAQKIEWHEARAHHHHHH

Chain of mouse 4-1BB on activated mouse splenocytes (P20334 24-256 limits assumed): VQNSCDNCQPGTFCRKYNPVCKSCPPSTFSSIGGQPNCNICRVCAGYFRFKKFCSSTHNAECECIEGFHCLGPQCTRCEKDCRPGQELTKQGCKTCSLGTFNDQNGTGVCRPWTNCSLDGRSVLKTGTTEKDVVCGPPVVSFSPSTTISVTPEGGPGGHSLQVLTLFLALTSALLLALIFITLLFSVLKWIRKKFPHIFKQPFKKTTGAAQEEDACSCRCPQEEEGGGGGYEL

B1: clone 17A9 Fab (Fab, V domains shown)
VH: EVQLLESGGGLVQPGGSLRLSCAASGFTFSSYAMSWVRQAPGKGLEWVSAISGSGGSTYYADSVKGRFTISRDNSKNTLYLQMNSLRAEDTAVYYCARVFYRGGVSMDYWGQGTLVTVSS
VL: SSELTQDPAVSVALGQTVRITCQGDSLRSYYASWYQQKPGQAPVLVIYGKNNRPSGIPDRFSGSSSGNTASLTITGAQAEDEADYYCNSRVMPHNRVFGGGTKLTV
notes: phage library Fab with CH1/CL and tags
binding result [1]: binds

B2: 9B11 P329GLALA IgG1 (antibody, V domains shown)
VH: QVQLVQSGAEVKKPGSSVKVSCKASGGTFSSYAISWVRQAPGQGLEWMGGIIPIFGTANYAQKFQGRVTITADKSTSTAYMELSSLRSEDTAVYYCARSSGAYPGYFDYWGQGTTVTVSS
VL: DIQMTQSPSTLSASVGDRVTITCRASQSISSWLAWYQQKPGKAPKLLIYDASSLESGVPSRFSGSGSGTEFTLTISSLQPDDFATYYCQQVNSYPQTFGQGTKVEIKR
notes: anti-4-1BB
Kd [2]: 78 nM
koff [2]: 0.002 s⁻¹
kon [2]: 26000 M⁻¹ s⁻¹
binding result [3]: no binding
EC50 (human 4-1BB on cells [4]): 4.49 nM
EC50 of increase of IFNγ secretion in activated CD8+ T cells (surface-immobilized IgG) (human 4-1BB on cells [5]): 0.12 nM
Kd [6]: 140 nM
koff [6]: 0.0039 s⁻¹
kon [6]: 27000 M⁻¹ s⁻¹
binding result [7]: binds

B3: 12B3/FAP P329GLALA IgG1 2+2 (bispecific antibody)
heavy: not shown
light 1: not shown
light 2: EIVLTQSPGTLSLSPGERATLSCRASQSVSRSYLAWYQQKPGQAPRLLIIGASTRATGIPDRFSGSGSGTDFTLTISRLEPEDFAVYYCQQGQVIPPTFGQGTKVEIKSSASTKGPSVFPLAPSSKSTSGGTAALGCLVKDYFPEPVTVSWNSGALTSGVHTFPAVLQSSGLYSLSSVVTVPSSSLGTQTYICNVNHKPSNTKVDKKVEPKSCD
notes: also called 12B3×FAP (28H1) 2+2
EC50 of NFκB/luciferase activation, 4-1BB reporter HeLa with NIH/3T3-huFAP clone 19 (human 4-1BB on cells [8]): 0.2 nM
EC50 [9]: 12.2 nM
EC50 (human 4-1BB on cells [10]): 2 nM

B4: OX40(49B4)/DP47 P329GLALA IgG1 4+2 (bispecific antibody)
heavy: not shown
light 1: DIQMTQSPSTLSASVGDRVTITCRASQSISSWLAWYQQKPGKAPKLLIYDASSLESGVPSRFSGSGSGTEFTLTISSLQPDDFATYYCQQYSSQPYTFGQGTKVEIKRTVAAPSVFIFPPSDRKLKSGTASVVCLLNNFYPREAKVQWKVDNALQSGNSQESVTEQDSKDSTYSLSSTLTLSKADYEKHKVYACEVTHQGLSSPVTKSFNRGEC
light 2: not shown
notes: also called 4+2 (49B4/DP47); untargeted 4+2 construct
binding result [11]: no binding (tested: 250 nM)
EC50 (human OX40 on cells [12]): 0.11 nM
EC50 [13]: 0.07 nM

B5: (GITR-FAP) [8A06] 4+1 construct (bispecific antibody, human IgG1, lambda, L234A L235A)
heavy 1: not shown
heavy 2: not shown
light: SSELTQDPAVSVALGQTVRITCQGDSLRSYYASWYQQKPGQAPVLVIYGKNNRPSGIPDRFSGSSSGNTASLTITGAQAEDEADYYCNSPQTSGSAVFGGGTKLTVLGQPKAAPSVTLFPPSSEELQANKATLVCLISDFYPGAVTVAWKADSSPVKAGVETTTPSKQSNNKYAASSYLSLTPEQWKSHRSYSCQVTHEGSTVEKTVAPTECS
binding result [14]: binds

B6: (GITR-FAP) [8A06] 4+2 construct (bispecific antibody, human IgG1, lambda, L234A L235A)
heavy: not shown
light 1: SSELTQDPAVSVALGQTVRITCQGDSLRSYYASWYQQKPGQAPVLVIYGKNNRPSGIPDRFSGSSSGNTASLTITGAQAEDEADYYCNSPQTSGSAVFGGGTKLTVLGQPKAAPSVTLFPPSSEELQANKATLVCLISDFYPGAVTVAWKADSSPVKAGVETTTPSKQSNNKYAASSYLSLTPEQWKSHRSYSCQVTHEGSTVEKTVAPTECS
light 2: EIVLTQSPGTLSLSPGERATLSCRASQSVSRSYLAWYQQKPGQAPRLLIIGASTRATGIPDRFSGSGSGTDFTLTISRLEPEDFAVYYCQQGQVIPPTFGQGTKVEIKSSASTKGPSVFPLAPSSKSTSGGTAALGCLVKDYFPEPVTVSWNSGALTSGVHTFPAVLQSSGLYSLSSVVTVPSSSLGTQTYICNVNHKPSNTKVDKKVEPKSC
binding result [15]: binds
EC50 [16]: 3.85 nM
binding result [17]: binds

B7: 20B7 P329GLALA IgG1 (antibody, V domains shown)
VH: QVQLVQSGAEVKKPGSSVKVSCKASGGTFSSYAISWVRQAPGQGLEWMGGIIPIFGTANYAQKFQGRVTITADKSTSTAYMELSSLRSEDTAVYYCARVNYPYSYWGDFDYWGQGTTVTVSS
VL: DIQMTQSPSTLSASVGDRVTITCRASQSISSWLAWYQQKPGKAPKLLIYDASSLESGVPSRFSGSGSGTEFTLTISSLQPDDFATYYCQQYQAFSLTFGQGTKVEIKR
notes: anti-OX40
Kd [18]: 1100 nM
koff [18]: 0.0166 s⁻¹
kon [18]: 15700 M⁻¹ s⁻¹
EC50 of NFκB activation in HeLa_hOx40_NFκB_luc1 reporter cells with secondary anti-human IgG Fcγ antibody (human OX40 on cells [19]): 2.27 nM
Kd [20]: 42 nM
koff [20]: 0.0013 s⁻¹
kon [20]: 32000 M⁻¹ s⁻¹
EC50 [21]: 1.52 nM
binding result [22]: binds
EC50 (human OX40 on cells [23]): 1.64 nM
EC50 of rescuing suboptimal TCR stimulation with plate-immobilized anti-OX40 binder (preactivated human CD4 T cells) (human OX40 on cells [24]): 0.09 nM
binding result [25]: binds
Kd [26]: 360 nM
koff [26]: 0.018 s⁻¹
kon [26]: 49000 M⁻¹ s⁻¹
Kd [27]: 5.6 nM
koff [27]: 0.00066 s⁻¹
kon [27]: 120000 M⁻¹ s⁻¹
